According to patent publication US10973880B2, “Compositions and methods for treating pulmonary hypertension” (Acceleron Pharma Inc., priority 2016, dated 2021):

T1: GDF8 (Homo sapiens, UniProt O14793)
T1 sequence (O14793 267-375): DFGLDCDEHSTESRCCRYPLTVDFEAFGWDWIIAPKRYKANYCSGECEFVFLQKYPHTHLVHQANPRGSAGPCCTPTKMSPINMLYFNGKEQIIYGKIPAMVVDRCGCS

T2: activin A (ActA) (Homo sapiens, UniProt P08476)
T2 sequence (P08476 311-426): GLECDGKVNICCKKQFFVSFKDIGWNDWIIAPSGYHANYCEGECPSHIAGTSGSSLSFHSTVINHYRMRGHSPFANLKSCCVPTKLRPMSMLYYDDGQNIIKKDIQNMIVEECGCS

T3: GDF11 (Homo sapiens, UniProt O95390)
T3 sequence (O95390 299-407): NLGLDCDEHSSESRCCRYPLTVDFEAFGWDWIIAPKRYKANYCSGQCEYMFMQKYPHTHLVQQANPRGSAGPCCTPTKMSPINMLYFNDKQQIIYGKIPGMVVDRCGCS


What was measured:
[1] = tested on: rat model of pulmonary arterial hypertension (PAH), monocrotaline (MCT) induced; assay: monocrotaline rat model of pulmonary arterial hypertension; assay type: in vivo, Sprague Dawley rats
Experimental: The effects of an ActRIIA-mFc fusion protein (ActRIIA-mFc homodimer as described in Example 1), an ALK4-Fc-ActRIIB-Fc heterodimer (as described in Examples 12 and 13), and sildenafil (a phosphodiesterase-5 inhibitor approved for the treatment of PAH) were examined in a rat model of pulmonary arterial hypertension (PAH). In this model, Sprague Dawley rats received a […] injection of monocrotaline (MCT) to induce PAH 24 hours prior to start of therapy.
Rats were separated into different treatment groups (10 mice per group): 1) treatment with MCT (60 mg/kg administered i.p. as a single dose at day 1 of study) and Tris buffered saline (i.p. as 1 ml/kg, every three days) (vehicle treatment group), 2) treatment with an ActRIIA-mFc polypeptide (10 mg/kg administered i.p. every three days) and MCT (60 mg/kg administered i.p. as a single dose at day 1 of study), 3) treatment with an ALK4-Fc:ActRIIB-Fc heterodimer (10 mg/kg administered i.p. every three days) and MCT (60 mg/kg administered i.p. as a single dose at day 1 of study), 4) treatment with sildenafil (30 mg/kg administered orally twice daily) and MCT (60 mg/kg administered i.p. as a single dose at day 1 of study), and 5) control rats (Tris buffered saline administered i.p. as 1 ml/kg, every three days). Rats were treated for 28 days. Body weights were recorded prior to first dose on Day 1 and then weekly throughout the study.
On day 28, rats were anesthetized by an intraperitoneal injection of ketamine/xylazine (80/10 mg/kg). An incision was made in the neck, and a jugular vein was isolated and ligated anteriorly. A fluid-filled pressure catheter was introduced into the right jugular vein to measure pulmonary artery pressure (PAP). Another incision was made in the inguinal region, and femoral artery was isolated and ligated anteriorly. A Millar pressure catheter was introduced into a femoral artery to measure systolic arterial pressure, diastolic pressure, and heart rate. Mean arterial pressure and right PAP were monitored using the Notocord HEM (Croissy sur Seine, Frnace) v3.5 data capture system for approximately 5-10 minutes until stable measurements were obtained. During the measurements, rats were maintained at approximately 37° C. on a heating pad and body temperature was monitored throughout the procedure with a rectal temperature probe. At the conclusion of the procedure, rats were euthanized, and the hearts and lungs were removed. The entire heart was weighed. Next, the atria were removed and the left ventricle with septum (LV+S) was separated from the right ventricle (RV). The ventricles were weighed separately. Hypertrophy was assessed, in part, by calculating RV/LV+S. The lungs were also weighed.
Similar trends were observed on vessel muscularity based on histopathologic scoring. After staining tissue samples to detect αSMA/elastin, 100 pulmonary arterioles, between 10 μm and 50 μm in size, per animal were categorized as non-muscularized, partially muscularized, or completely muscularized. Pulmonary arterioles from vehicle treated rats were determined to be 62.3% completely muscularized, 36.4% partially muscularized, and 1.4% non-muscularized. […] Histopathological scoring of smooth muscle hypertrophy of pulmonary arterioles were also recorded as follows: 0 (normal), 1 (minimal), 2 (mild), 3 (moderate), or 4 (marked).

[2] = molecular target: T1, GDF8; assay: Biacore assay, receptor captured with anti-hFc antibody; assay type: binding
Experimental: Binding of certain ActRIIB-Fc proteins and GDF traps to ligands was tested in a Biacore assay.
The ActRIIB-Fc variants or wild-type protein were captured onto the system using an anti-hFc antibody. Ligands were injected and flowed over the captured receptor proteins.

[3] = molecular target: T2, activin A (ActA); details: reproduced from WO2006/012627; cited from earlier work
[4] = molecular target: T3, GDF11; details: reproduced from WO2006/012627; cited from earlier work

Molecule | ActA binding relative to WT [3] | GDF11 binding relative to WT [4] | also measured
CCCc1nn(C)c2c(=O)[nH]c(-c3cc(S(=O)(=O)N4CCN(C)CC4)ccc3OCC)nc12 [sildenafil, reference compound] |  |  | smooth muscle hypertrophy of pulmonary arterioles, average histopathological score ([1]; 0 normal, 1 minimal, 2 mild, 3 moderate, 4 marked): 3 score; improvement in body weight ([1]; 28 days, compared to monocrotaline treated rats, proteins 10 mg/kg i.p. every three days, sildenafil 30 mg/kg orally twice daily): did not have any improvement
ActRIIB(K74A 20-134)-hFc: ActRIIB(20-134)-hFc variant with K74A mutation (protein) GRGEAETRECIYYNANWELERTNQSGLERCEGEQDKRLHCYASWRNSSGTIELVAKGCWLDDFNCYDRQECVATEENPQVYFCCCEGNFCNERFTHLPEAGGPEVTYEPPPTAPTGGGTHTCPPCPAPELLGGPSVFLFPPKPKDTLMISRTPEVTCVVVDVSHEDPEVKFNWYVDGVEVHNAKTKPREEQYNSTYRVVSVLTVLHQDWLNGKEYKCKVSNKALPVPIEKTISKAKGQPREPQVYTLPPSREEMTKNQVSLTCLVKGFYPSDIAVEWESNGQPENNYKTTPPVLDSDGSFFLYSKLTVDKSRWQQGNVFSCSVMHEALHNHYTQKSLSLSPGK |  |  | Koff, GDF8 [2]: 2.03e-05 s⁻¹
D54A: soluble ActRIIB-Fc variant D54A (protein, left off: a dimerising Fc or GST) SGRGEAETRECIYYNANWELERTNQSGLERCEGEQAKRLHCYASWANSSGTIELVKKGCWLDDFNCYDRQECVATEENPQVYFCCCEGNFCNERFTHLPEA | − (~1/2 WT binding) |  | 
K55A: soluble ActRIIB-Fc variant K55A (protein, left off: a dimerising Fc or GST) SGRGEAETRECIYYNANWELERTNQSGLERCEGEQDARLHCYASWANSSGTIELVKKGCWLDDFNCYDRQECVATEENPQVYFCCCEGNFCNERFTHLPEA | ++ (<2× increased binding) |  | 
K74A: soluble ActRIIB-Fc variant K74A (WO2006/012627 table) (protein, left off: a dimerising Fc or GST) SGRGEAETRECIYYNANWELERTNQSGLERCEGEQDKRLHCYASWANSSGTIELVAKGCWLDDFNCYDRQECVATEENPQVYFCCCEGNFCNERFTHLPEA | +++++ (~40× increased binding) | +++++ (~40× increased binding) | 
K74Y: soluble ActRIIB-Fc variant K74Y (protein, left off: a dimerising Fc or GST) SGRGEAETRECIYYNANWELERTNQSGLERCEGEQDKRLHCYASWANSSGTIELVYKGCWLDDFNCYDRQECVATEENPQVYFCCCEGNFCNERFTHLPEA |  | −− (<1/5 WT binding) | 
K74F: soluble ActRIIB-Fc variant K74F (protein, left off: a dimerising Fc or GST) SGRGEAETRECIYYNANWELERTNQSGLERCEGEQDKRLHCYASWANSSGTIELVFKGCWLDDFNCYDRQECVATEENPQVYFCCCEGNFCNERFTHLPEA |  | −− (<1/5 WT binding) | 
K74I: soluble ActRIIB-Fc variant K74I (protein, left off: a dimerising Fc or GST) SGRGEAETRECIYYNANWELERTNQSGLERCEGEQDKRLHCYASWANSSGTIELVIKGCWLDDFNCYDRQECVATEENPQVYFCCCEGNFCNERFTHLPEA |  | −− (<1/5 WT binding) | 
L79A: soluble ActRIIB-Fc variant L79A (protein, left off: a dimerising Fc or GST) SGRGEAETRECIYYNANWELERTNQSGLERCEGEQDKRLHCYASWANSSGTIELVKKGCWADDFNCYDRQECVATEENPQVYFCCCEGNFCNERFTHLPEA | + (WT) |  | 
D80I: soluble ActRIIB-Fc variant D80I (protein, left off: a dimerising Fc or GST) SGRGEAETRECIYYNANWELERTNQSGLERCEGEQDKRLHCYASWANSSGTIELVKKGCWLIDFNCYDRQECVATEENPQVYFCCCEGNFCNERFTHLPEA |  | −− (<1/5 WT binding) | 
F82A: soluble ActRIIB-Fc variant F82A (protein, left off: a dimerising Fc or GST) SGRGEAETRECIYYNANWELERTNQSGLERCEGEQDKRLHCYASWANSSGTIELVKKGCWLDDANCYDRQECVATEENPQVYFCCCEGNFCNERFTHLPEA | ++ (<2× increased binding) | − (~1/2 WT binding) | 
WT (64A): soluble ActRIIB-Fc, wild type with alanine at position 64 (WO2006/012627) (protein, left off: a dimerising Fc or GST) SGRGEAETRECIYYNANWELERTNQSGLERCEGEQDKRLHCYASWANSSGTIELVKKGCWLDDFNCYDRQECVATEENPQVYFCCCEGNFCNERFTHLPEA | (+) (WT) | (+) (WT) | 
WT (64R): soluble ActRIIB-Fc, wild type with arginine at position 64 (WO2006/012627) (protein, left off: a dimerising Fc or GST) SGRGEAETRECIYYNANWELERTNQSGLERCEGEQDKRLHCYASWRNSSGTIELVKKGCWLDDFNCYDRQECVATEENPQVYFCCCEGNFCNERFTHLPEA |  | (+++) (~5× increased binding) | 
+15tail: soluble ActRIIB-Fc variant labelled +15tail (WO2006/012627) (protein, left off: a dimerising Fc or GST) SGRGEAETRECIYYNANWELERTNQSGLERCEGEQDKRLHCYASWANSSGTIELVKKGCWLDDFNCYDRQECVATEENPQVYFCCCEGNFCNERFTHLPEAGGPEVTYEPPPTAPT | (+++) (~5× increased binding) | (++++) (~10× increased binding) | Kd [4]: 0.019 µM
R40A: soluble ActRIIB-Fc variant R40A (protein, left off: a dimerising Fc or GST) SGRGEAETRECIYYNANWELEATNQSGLERCEGEQDKRLHCYASWANSSGTIELVKKGCWLDDFNCYDRQECVATEENPQVYFCCCEGNFCNERFTHLPEA | − (~1/2 WT binding) | − (~1/2 WT binding) | 
